Test results published in the Human Domainome abundance scans (Beltran et al. 2025).
± gives the uncertainty stated by the source.

B1: Far upstream element-binding protein 1, residues 184 to 257; numbered along this chain, Q96AE4 (parent)
chain: GNAVQEIMIPASKAGLVIGKGGETIKQLQERAGVKMVMIQDGPQNTGADKPLRITGDPYKVQQAKEMVLELIRD

Variants of: B1
Assay: abundance fitness (aPCA) (normalised: wild type 0, dead -1); higher = more abundant; growth selection in yeast, the domain comes from the species named
Settings: Homo sapiens

Abundance fitness of substitutions, site by site:
M8: A -0.124 ± 0.032, C -0.339 ± 0.047, D -0.23 ± 0.046, E -0.166 ± 0.039, G -0.151 ± 0.027, H -0.102 ± 0.052, I -0.011 ± 0.047, L -0.075 ± 0.03, N -0.078 ± 0.049, P -0.094 ± 0.036, Q -0.03 ± 0.04, R -0.074 ± 0.026, S -0.121 ± 0.031, T -0.106 ± 0.038, V -0.323 ± 0.032, W -0.164 ± 0.034, Y -0.133 ± 0.049
I9: A -1 ± 0.056, F -0.737 ± 0.066, H -0.905 ± 0.088, L -0.087 ± 0.029, M -0.312 ± 0.039, N -0.785 ± 0.065, P -0.905 ± 0.055, Q -0.768 ± 0.055, S -0.913 ± 0.045, T -0.749 ± 0.045, V 0.009 ± 0.029, W -0.964 ± 0.049, Y -0.891 ± 0.077
P10: A -0.468 ± 0.035, C -0.598 ± 0.053, D -0.355 ± 0.045, E -0.364 ± 0.038, F -1.13 ± 0.13, G -0.557 ± 0.031, H -0.398 ± 0.052, I -0.903 ± 0.084, K -0.287 ± 0.04, L -0.922 ± 0.049, M -0.678 ± 0.05, N -0.299 ± 0.054, Q -0.391 ± 0.044, R -0.513 ± 0.03, S -0.367 ± 0.036, T -0.456 ± 0.042, V -0.946 ± 0.047, W -1.22 ± 0.082, Y -1.03 ± 0.12
A11: C -0.034 ± 0.043, D -0.014 ± 0.045, E -0.098 ± 0.035, F -0.13 ± 0.046, G -0.098 ± 0.027, H -0.133 ± 0.052, I -0.096 ± 0.056, K -0.011 ± 0.037, L -0.092 ± 0.03, M -0.094 ± 0.036, N 0.021 ± 0.046, Q -0.078 ± 0.04, R -0.1 ± 0.027, T -0.08 ± 0.035, V -0.071 ± 0.03, W -0.17 ± 0.033, Y -0.089 ± 0.053
S12: A 0.012 ± 0.033, C -0.133 ± 0.044, D 0.004 ± 0.043, E -0.016 ± 0.034, F -0.207 ± 0.062, G 0.002 ± 0.027, H -0.018 ± 0.054, I -0.032 ± 0.052, K 0.011 ± 0.039, L -0.112 ± 0.031, M -0.071 ± 0.04, N 0 ± 0.045, P -0.008 ± 0.038, Q -0.077 ± 0.04, R -0.025 ± 0.026, T 0.001 ± 0.036, V -0.059 ± 0.033, W -0.123 ± 0.034, Y -0.13 ± 0.049
K13: A -0.094 ± 0.032, C -0.008 ± 0.042, D -0.155 ± 0.048, E -0.139 ± 0.035, F -0.182 ± 0.048, G -0.231 ± 0.029, H -0.032 ± 0.054, I -0.015 ± 0.047, L -0.114 ± 0.03, P -0.659 ± 0.046, Q -0.035 ± 0.04, R -0.187 ± 0.028, S -0.078 ± 0.031, T -0.218 ± 0.036, V -0.091 ± 0.031, W -0.3 ± 0.037, Y -0.091 ± 0.056
A14: C 0.031 ± 0.044, D -0.109 ± 0.05, E -0.014 ± 0.041, F -0.022 ± 0.051, G -0.193 ± 0.032, H 0.034 ± 0.049, I 0.039 ± 0.064, K -0.065 ± 0.047, L 0.042 ± 0.031, M 0.033 ± 0.043, N -0.061 ± 0.058, P -0.643 ± 0.039, Q 0.028 ± 0.038, R 0.001 ± 0.028, S -0.049 ± 0.032, T 0.035 ± 0.035, V -0.017 ± 0.035, Y -0.039 ± 0.052
G15: A -0.126 ± 0.031, C 0.127 ± 0.041, D -0.031 ± 0.039, E 0.04 ± 0.036, I -0.028 ± 0.05, L -0.026 ± 0.031, M 0.042 ± 0.039, N 0.011 ± 0.053, P -0.128 ± 0.034, Q -0.031 ± 0.039, R -0.041 ± 0.027, S -0.04 ± 0.03, T -0.093 ± 0.036, V -0.026 ± 0.03, W -0.005 ± 0.033, Y -0.035 ± 0.048
L16: A -0.028 ± 0.033, C -0.147 ± 0.043, D -0.053 ± 0.046, E -0.06 ± 0.036, F 0.003 ± 0.051, G -0.191 ± 0.029, H -0.15 ± 0.047, I -0.048 ± 0.055, K -0.008 ± 0.036, M -0.018 ± 0.038, N -0.103 ± 0.052, P -0.581 ± 0.038, Q -0.093 ± 0.036, R -0.087 ± 0.026, S -0.122 ± 0.031, T -0.058 ± 0.033, W -0.068 ± 0.033, Y -0.045 ± 0.052
V17: A -0.427 ± 0.035, C -0.272 ± 0.046, D -0.479 ± 0.056, E -0.503 ± 0.04, G -0.599 ± 0.032, H -0.589 ± 0.063, I -0.06 ± 0.048, K -0.679 ± 0.052, M -0.08 ± 0.046, N -0.594 ± 0.073, P -0.759 ± 0.046, Q -0.703 ± 0.05, R -0.687 ± 0.033
